According to PMC9971032, “Structure and mechanism of a tripartite ATP-independent periplasmic TRAP transporter” (Nature Communications, 2023):

Tests used:
SiaP = molecular target: T1, SiaP (Photobacterium profundum, UniProt Q6LPV9); assay: isothermal titration calorimetry; format: binding; details: 50 mM Tris-HCl pH 8.0, 150 mM NaCl, 25 °C; single-site fit
T1 construct: gene SMB20295; native signal peptide (residues 1-22) removed, apparently untagged (pET30deltaSE, ion-exchange and hydrophobic purification), E. coli BL21(DE3)
Excerpt: isothermal titration calorimetry on SiaP | We confirmed that SiaP binds sialic acid with nanomolar affinity

[1] = molecular target: SiaQM complex with SiaM R292A (Photobacterium profundum)
[2] = molecular target: SiaQM transporter complex from Photobacterium profundum (Photobacterium profundum)

Work on `CC(=O)N[C@H]1[C@H]([C@H](O)[C@H](O)CO)OC(O)(C(=O)O)C[C@@H]1O` (stereo partly drawn) [Neu5Ac] yielded a Kd (SiaP) of 561 nM.

For “SiaP (substrate-binding P-subunit of the sialic acid TRAP transporter from Photobacterium profundum) (natural protein)”, the reduction of [3H]-Neu5Ac transport activity in proteoliposomes against wildtype SiaPQM [1] was 87 % reduction.

SiaP D59A (natural protein) showed a reduction of [3H]-Neu5Ac transport activity in proteoliposomes against wildtype SiaPQM [2] of 77 % reduction.
